Values belong to the binder of their own block, whether it stands above or below them.
Biological target: CUL1^FlAsH preassembled with SKP1·SKP2 (UniProt Q13616;P62877;P63208;Q13309, FlAsH fluorophore on the C-terminal tetracysteine tag)
Experiment: FRET or BRET

CUL1^FlAsH preassembled with SKP1·SKP2, sequence (Q13616 whole entry, chain 1 of 3): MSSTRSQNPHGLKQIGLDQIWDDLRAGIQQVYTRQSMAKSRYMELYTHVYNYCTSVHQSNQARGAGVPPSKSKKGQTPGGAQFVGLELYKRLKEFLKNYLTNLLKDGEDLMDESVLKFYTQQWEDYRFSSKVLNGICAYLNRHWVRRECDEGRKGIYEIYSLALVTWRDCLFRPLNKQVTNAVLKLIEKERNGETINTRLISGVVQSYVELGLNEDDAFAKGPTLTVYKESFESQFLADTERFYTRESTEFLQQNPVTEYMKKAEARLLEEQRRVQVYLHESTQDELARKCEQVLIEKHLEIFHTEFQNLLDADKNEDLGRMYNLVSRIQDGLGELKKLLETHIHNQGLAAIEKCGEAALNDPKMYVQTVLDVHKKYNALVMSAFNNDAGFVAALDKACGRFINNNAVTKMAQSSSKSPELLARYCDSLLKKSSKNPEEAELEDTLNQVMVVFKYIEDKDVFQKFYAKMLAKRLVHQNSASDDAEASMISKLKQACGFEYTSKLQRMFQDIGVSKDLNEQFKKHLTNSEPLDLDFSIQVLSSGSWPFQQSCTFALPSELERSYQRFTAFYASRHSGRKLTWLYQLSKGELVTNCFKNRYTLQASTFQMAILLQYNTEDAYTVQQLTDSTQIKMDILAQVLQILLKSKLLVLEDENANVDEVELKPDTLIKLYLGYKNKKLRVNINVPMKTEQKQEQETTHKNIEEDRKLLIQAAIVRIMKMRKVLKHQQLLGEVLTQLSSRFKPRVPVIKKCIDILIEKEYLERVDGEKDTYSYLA
CUL1^FlAsH preassembled with SKP1·SKP2, sequence (P63208 whole entry, chain 3 of 3): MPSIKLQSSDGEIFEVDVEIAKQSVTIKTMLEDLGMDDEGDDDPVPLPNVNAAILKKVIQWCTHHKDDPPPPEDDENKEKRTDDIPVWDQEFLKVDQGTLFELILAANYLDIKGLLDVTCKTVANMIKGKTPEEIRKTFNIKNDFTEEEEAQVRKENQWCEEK
CUL1^FlAsH preassembled with SKP1·SKP2, sequence (Q13309 whole entry, chain 4 of 3): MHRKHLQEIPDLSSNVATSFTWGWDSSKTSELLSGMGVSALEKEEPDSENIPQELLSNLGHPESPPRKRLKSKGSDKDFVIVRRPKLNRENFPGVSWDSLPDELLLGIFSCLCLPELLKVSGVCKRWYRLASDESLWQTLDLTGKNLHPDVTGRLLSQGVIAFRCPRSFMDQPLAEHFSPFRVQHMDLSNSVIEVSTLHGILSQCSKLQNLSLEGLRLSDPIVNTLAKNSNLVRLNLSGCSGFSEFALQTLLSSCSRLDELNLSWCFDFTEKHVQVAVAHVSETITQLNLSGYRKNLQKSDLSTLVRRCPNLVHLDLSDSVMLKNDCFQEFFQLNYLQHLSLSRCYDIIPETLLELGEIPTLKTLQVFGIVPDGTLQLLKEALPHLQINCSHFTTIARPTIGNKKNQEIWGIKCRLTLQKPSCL

koff: 4.4 s⁻¹
B1: ^CFPCAND2 (natural protein)
chain: MSTAAFHISSLLEKMTSSDKDFRFMATSDLMSELQKDSIQLDEDSERKVVKMLLRLLEDKNGEVQNLAVKCLGPLVVKVKEYQVETIVDTLCTNMRSDKEQLRDIAGIGLKTVLSELPPAATGSGLATNVCRKITGQLTSAIAQQEDVAVQLEALDILSDMLSRLGVPLGAFHASLLHCLLPQLSSPRLAVRKRAVGALGHLAAACSTDLFVELADHLLDRLPGPRVPTSPTAIRTLIQCLGSVGRQAGHRLGAHLDRLVPLVEDFCNLDDDELRESCLQAFEAFLRKCPKEMGPHVPNVTSLCLQYIKHDPNYNYDSDEDEEQMETEDSEFSEQESEDEYSDDDDMSWKVRRAAAKCIAALISSRPDLLPDFHCTLAPVLIRRFKEREENVKADVFTAYIVLLRQTQPPKGWLEAMEEPTQTGSNLHMLRGQVPLVVKALQRQLKDRSVRARQGCFSLLTELAGVLPGSLAEHMPVLVSGIIFSLADRSSSSTIRMDALAFLQGLLGTEPAEAFHPHLPILLPPVMACVADSFYKIAAEALVVLQELVRALWPLHRPRMLDPEPYVGEMSAVTLARLRATDLDQEVKERAISCMGHLVGHLGDRLGDDLEPTLLLLLDRLRNEITRLPAIKALTLVAVSPLQLDLQPILAEALHILASFLRKNQRALRLATLAALDALAQSQGLSLPPSAVQAVLAELPALVNESDMHVAQLAVDFLATVTQAQPASLVEVSGPVLSELLRLLRSPLLPAGVLAAAEGFLQALVGTRPPCVDYAKLISLLTAPVYEQAVDGGPGLHKQVFHSLARCVAALSAACPQEAASTASRLVCDARSPHSSTGVKVLAFLSLAEVGQVAGPGHQRELKAVLLEALGSPSEDVRAAASYALGRVGAGSLPDFLPFLLEQIEAEPRRQYLLLHSLREALGAAQPDSLKPYAEDIWALLFQRCEGAEEGTRGVVAECIGKLVLVNPSFLLPRLRKQLAAGRPHTRSTVITAVKFLISDQPHPIDPLLKSFIGEFMESLQDPDLNVRRATLAFFNSAVHNKPSLVRDLLDDILPLLYQETKIRRDLIREVEMGPFKHTVDDGLDVRKAAFECMYSLLESCLGQLDICEFLNHVEDGLKDHYDIRMLTFIMVARLATLCPAPVLQRVDRLIEPLRATCTAKVKAGSVKQEFEKQDELKRSAMRAVAALLTIPEVGKSPIMADFSSQIRSNPELAALFESIQKDSASAPSTDSMELS

koff: 2.5 s⁻¹
B2: ^CFPCAND1 (natural protein)
chain: MASASYHISNLLEKMTSSDKDFRFMATNDLMTELQKDSIKLDDDSERKVVKMILKLLEDKNGEVQNLAVKCLGPLVSKVKEYQVETIVDTLCTNMLSDKEQLRDISSIGLKTVIGELPPASSGSALAANVCKKITGRLTSAIAKQEDVSVQLEALDIMADMLSRQGGLLVNFHPSILTCLLPQLTSPRLAVRKRTIIALGHLVMSCGNIVFVDLIEHLLSELSKNDSMSTTRTYIQCIAAISRQAGHRIGEYLEKIIPLVVKFCNVDDDELREYCIQAFESFVRRCPKEVYPHVSTIINICLKYLTYDPNYNYDDEDEDENAMDADGGDDDDQGSDDEYSDDDDMSWKVRRAAAKCLDAVVSTRHEMLPEFYKTVSPALISRFKEREENVKADVFHAYLSLLKQTRPVQSWLCDPDAMEQGETPLTMLQSQVPNIVKALHKQMKEKSVKTRQCCFNMLTELVNVLPGALTQHIPVLVPGIIFSLNDKSSSSNLKIDALSCLYVILCNHSPQVFHPHVQALVPPVVACVGDPFYKITSEALLVTQQLVKVIRPLDQPSSFDATPYIKDLFTCTIKRLKAADIDQEVKERAISCMGQIICNLGDNLGSDLPNTLQIFLERLKNEITRLTTVKALTLIAGSPLKIDLRPVLGEGVPILASFLRKNQRALKLGTLSALDILIKNYSDSLTAAMIDAVLDELPPLISESDMHVSQMAISFLTTLAKVYPSSLSKISGSILNELIGLVRSPLLQGGALSAMLDFFQALVVTGTNNLGYMDLLRMLTGPVYSQSTALTHKQSYYSIAKCVAALTRACPKEGPAVVGQFIQDVKNSRSTDSIRLLALLSLGEVGHHIDLSGQLELKSVILEAFSSPSEEVKSAASYALGSISVGNLPEYLPFVLQEITSQPKRQYLLLHSLKEIISSASVVGLKPYVENIWALLLKHCECAEEGTRNVVAECLGKLTLIDPETLLPRLKGYLISGSSYARSSVVTAVKFTISDHPQPIDPLLKNCIGDFLKTLEDPDLNVRRVALVTFNSAAHNKPSLIRDLLDTVLPHLYNETKVRKELIREVEMGPFKHTVDDGLDIRKAAFECMYTLLDSCLDRLDIFEFLNHVEDGLKDHYDIKMLTFLMLVRLSTLCPSAVLQRLDRLVEPLRATCTTKVKANSVKQEFEKQDELKRSAMRAVAALLTIPEAEKSPLMSEFQSQISSNPELAAIFESIQKDSSSTNLESMDTS
